One assay concerns the target T1, human TrkB (Homo sapiens, UniProt Q16620).
T1 construct: expressed in transfected cells
The experiment in a line: Receptor tyrosine phosphorylation (KIRA) in TrkB expressing cell line. The conditions noted are these: single cysteine mutants. In kind it is cell-based. From the text:
Method of making pegylated NT-4/5 (S50C): The native form of NT-4/5 used in this study was produced according to the method described in U.S. Pat. No. 6,184,360. A site-directed pegylated NT-4/5 was also produced. The structure of NT-4/5 in complex with domain 5 of TrkB was examined to find amino acid side chains that would be surface available and unlikely to interfere with natural disulfide bonds and also unlikely to interfere in either the interactions between the monomer subunits of NT-4/5 or the TrkB domain 5 to create a PEG attaching site. […] […] Mutant proteins were expressed in E. coli, solubilized, extracted, purified and refolded as the native NT-4/5. To pegylate the refolded NT4-S50C, NT4-Q105C, and NT-4-E67C, first a mild reduction with 0.1 mM DTT (dithiothreitol) was performed. Excess DTT was removed by dialysis against 50 mM sodium acetate at pH 6, then a 5 molar excess of mPEG-maleimide (M. W. of 10,000 Da, SunBio, Inc., South Korea) was incubated with the protein at 37° C. for several days with gentle agitation. Pegylated protein, non-pegylated protein and unreacted PEG were separated via ion exchange or size exclusion chromatography.
Assays of TrkB specific activation by pegylated NT-4/5: Stable cell lines expressing human TrkA, TrkB or TrkC were used to determine the functional activity, i.e. receptor phosphorylation, of NT-4/5 and pegylated NT-4/5 as previously described (Sadick et al. Experimental Cell Research 234: 354-361, 1997).
Assays of TrkB specific activation by pegylated NT-4/5: Stable cell lines expressing human TrkA, TrkB or TrkC were used to determine the functional activity, i.e. receptor phosphorylation, of NT-4/5 and different forms of pegylated NT-4/5 as previously described (Sadick et al. Experimental Cell Research 234: 354-361, 1997).

The subject of assay [1] is NONcNZO-10 polygenic obese mice. The experiment in a line: Non-fasting blood triglyceride level in NONcNZO-10 mice (Example 4, Table 18). The assay is classed as in vivo. Also noted: non-fasting blood triglyceride level: unit not given here. The conditions noted are these: NONcNZO-10 mice, mean. An excerpt: (§1) Test animals: 40 male NONcNZO-10 polygenic obese mice obtained from Jackson Laboratory at 10 weeks of age weighing in the range of 26-32 g were used in this study.
(§2) Administration of NT-4/5: NT-4/5 was produced in E. coli as descried in U.S. Pat. No. 6,184,360. The mice were divided into 6 groups of equivalent body weight and baseline blood glucose distribution (6-7 mice per group). […] A “paired-fed” control group received daily injection of vehicle, but were only fed with the same amount of food the 3 mg/kg group consumed the previous day. On the day when the treatment started (day 1), a baseline blood samples were collected for measuring glucose and triglyceride. Triglyceride level was measured on day 10. At the end of the study (day 12), a terminal blood sample was collected to determine glucose, triglyceride, electrolytes (Na, K, Cl), testoterone, corticosterone, thyroid hormone (total T4) and thyroid stimulating hormone (TSH) levels. Electrolytes, free testosterone, T4 and TSH levels of serum samples were measured by AniLytics (Gaithesburg, M.D) according to the standard protocols employed by the vendor. Other analytes were measured as described above. Body weight, food intake were monitored 5 days per week through out the entire study. Daily water intake was measured from day 5 through day 7.

Assay [2] has the same test system. The assay is described as follows: Body weight in NONcNZO-10 mice (Example 4, Table 19). In kind it is in vivo. Also on record: body weight: unit not given here. The conditions noted are these: NONcNZO-10 mice, mean.
Source text: as §1, §2

The test system is the same in assay [3]. The assay is described as follows: Food intake in NONcNZO-10 mice (Example 4, Table 20). The conditions noted are these: NONcNZO-10 mice, mean. Also on record: unit not given here. In kind it is in vivo.
Source text: as §1, §2

T1 sequence (Q16620 32-822): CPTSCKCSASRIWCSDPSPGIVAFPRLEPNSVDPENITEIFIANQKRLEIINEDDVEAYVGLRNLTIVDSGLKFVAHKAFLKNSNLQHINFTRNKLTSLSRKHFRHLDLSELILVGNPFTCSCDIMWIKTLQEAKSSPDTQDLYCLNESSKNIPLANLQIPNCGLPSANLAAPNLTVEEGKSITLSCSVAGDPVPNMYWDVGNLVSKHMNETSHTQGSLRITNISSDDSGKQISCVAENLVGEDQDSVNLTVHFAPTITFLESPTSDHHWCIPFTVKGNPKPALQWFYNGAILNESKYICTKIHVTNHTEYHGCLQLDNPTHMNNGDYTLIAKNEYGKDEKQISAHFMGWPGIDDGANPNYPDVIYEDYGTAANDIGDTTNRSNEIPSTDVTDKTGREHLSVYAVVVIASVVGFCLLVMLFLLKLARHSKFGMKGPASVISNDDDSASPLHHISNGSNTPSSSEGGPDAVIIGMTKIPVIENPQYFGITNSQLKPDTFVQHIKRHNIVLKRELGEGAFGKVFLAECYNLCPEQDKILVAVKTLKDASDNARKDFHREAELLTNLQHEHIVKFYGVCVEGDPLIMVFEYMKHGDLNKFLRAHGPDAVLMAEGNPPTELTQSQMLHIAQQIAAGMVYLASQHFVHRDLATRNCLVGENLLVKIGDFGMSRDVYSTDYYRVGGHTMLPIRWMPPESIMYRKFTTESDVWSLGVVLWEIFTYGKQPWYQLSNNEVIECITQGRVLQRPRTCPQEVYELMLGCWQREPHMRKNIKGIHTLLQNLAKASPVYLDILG

B1: S50C: single cysteine mutant of mature human NT-4/5, serine 50 to cysteine (protein)
chain: GVSETAPASRRGELAVCDAVSGWVTDRRTAVDLRGREVEVLGEVPAAGGCPLRQYFFETRCKADNAEEGGPGAGGGGCRGVDRRHWVSECKAKQSYVRALTADAQGRVGWRWIRIDTACVCTLLSRTGRA
On to B1, for which the “functional binding with TrkB in the KIRA assay” value (“functional binding with TrkB” for short) with human TrkB is listed as “found possible”.

B2: NT4 (protein)
chain: GVSETAPASRRGELAVCDAVSGWVTDRRTAVDLRGREVEVLGEVPAAGGSPLRQYFFETRCKADNAEEGGPGAGGGGCRGVDRRHWVSECKAKQSYVRALTADAQGRVGWRWIRIDTACVCTLLSRTGRA
With B2, the “non-fasting blood triglyceride level” value in assay [1] (0.1 mg/kg s.c. daily, Day 1 (baseline)) amounted to 291.7; in assay [1] (0.1 mg/kg s.c. daily, Day 10), 172.7; in assay [1] (0.3 mg/kg s.c. daily, Day 1 (baseline)), 279.3; in assay [1] (0.3 mg/kg s.c. daily, Day 10), 208.0; in assay [1] (1 mg/kg s.c. daily, Day 1 (baseline)), 307.7; in assay [1] (1 mg/kg s.c. daily, Day 10), 226.3. For the same molecule, the “non-fasting blood triglyceride level” value is 306.1 in assay [1] (3 mg/kg s.c. daily, Day 1 (baseline)) and 226.3 in assay [1] (3 mg/kg s.c. daily, Day 10). In addition, the body weight in assay [2] (0.1 mg/kg s.c., Day 1) is on record as 100.0; in assay [2] (0.1 mg/kg s.c., Day 2) it was 97.7; in assay [2] (0.1 mg/kg s.c., Day 3), 100.0; in assay [2] (0.1 mg/kg s.c., Day 4), 102.2; in assay [2] (0.1 mg/kg s.c., Day 5), 104.5; in assay [2] (0.1 mg/kg s.c., Day 8), 102.2. In addition, the body weight in assay [2] (0.1 mg/kg s.c., Day 9) was 102.8; in assay [2] (0.1 mg/kg s.c., Day 10), 103.3; in assay [2] (0.1 mg/kg s.c., Day 11) it was 105.1; in assay [2] (0.3 mg/kg s.c., Day 1), 100.0; in assay [2] (0.3 mg/kg s.c., Day 2), 98.3; in assay [2] (0.3 mg/kg s.c., Day 3) it was 98.9. For the same molecule, the body weight in assay [2] (0.3 mg/kg s.c., Day 4) came out at 100.6; in assay [2] (0.3 mg/kg s.c., Day 5) it was 101.8; in assay [2] (0.3 mg/kg s.c., Day 8) it was 101.2; in assay [2] (0.3 mg/kg s.c., Day 9) it was 102.4; in assay [2] (0.3 mg/kg s.c., Day 10), 102.9; in assay [2] (0.3 mg/kg s.c., Day 11) it was 104.1. For the same molecule, the body weight in assay [2] (1 mg/kg s.c., Day 1) is 100.0; in assay [2] (1 mg/kg s.c., Day 2), 97.1; in assay [2] (1 mg/kg s.c., Day 3), 94.8; in assay [2] (1 mg/kg s.c., Day 4) it was 98.2; in assay [2] (1 mg/kg s.c., Day 5), 99.2; in assay [2] (1 mg/kg s.c., Day 8), 97.7. Moreover, the body weight in assay [2] (1 mg/kg s.c., Day 9) amounted to 97.6; in assay [2] (1 mg/kg s.c., Day 10), 97.6; in assay [2] (1 mg/kg s.c., Day 11) it was 99.0; in assay [2] (3 mg/kg s.c., Day 1) it was 100.0; in assay [2] (3 mg/kg s.c., Day 2), 95.6; in assay [2] (3 mg/kg s.c., Day 3), 94.6. Besides, the body weight in assay [2] (3 mg/kg s.c., Day 4) came out at 94.6; in assay [2] (3 mg/kg s.c., Day 5), 94.6; in assay [2] (3 mg/kg s.c., Day 8) it was 92.2; in assay [2] (3 mg/kg s.c., Day 9) it was 92.2; in assay [2] (3 mg/kg s.c., Day 10) it was 92.7; in assay [2] (3 mg/kg s.c., Day 11), 92.6. The food intake in assay [3] (0.1 mg/kg s.c., Day 1) is recorded as 5.17; in assay [3] (0.1 mg/kg s.c., Day 2), 5.50; in assay [3] (0.1 mg/kg s.c., Day 3), 5.83; in assay [3] (0.1 mg/kg s.c., Day 4), 6.00; in assay [3] (0.1 mg/kg s.c., Day 5), 5.50; in assay [3] (0.1 mg/kg s.c., Day 8) it was 4.50. Also, the food intake in assay [3] (0.1 mg/kg s.c., Day 9) came out at 4.83; in assay [3] (0.1 mg/kg s.c., Day 10), 5.00; in assay [3] (0.3 mg/kg s.c., Day 1), 5.32; in assay [3] (0.3 mg/kg s.c., Day 2), 5.67; in assay [3] (0.3 mg/kg s.c., Day 3), 5.33; in assay [3] (0.3 mg/kg s.c., Day 4), 5.67. Also, the food intake is given as 4.83 in assay [3] (0.3 mg/kg s.c., Day 5); 4.33 in assay [3] (0.3 mg/kg s.c., Day 8); 4.50 in assay [3] (0.3 mg/kg s.c., Day 9); 4.67 in assay [3] (0.3 mg/kg s.c., Day 10); 5.07 in assay [3] (1 mg/kg s.c., Day 1); 5.43 in assay [3] (1 mg/kg s.c., Day 2). Further, the food intake in assay [3] (1 mg/kg s.c., Day 3) stood at 4.86; in assay [3] (1 mg/kg s.c., Day 4), 4.71; in assay [3] (1 mg/kg s.c., Day 5), 4.43; in assay [3] (1 mg/kg s.c., Day 8), 3.93; in assay [3] (1 mg/kg s.c., Day 9) it was 4.00; in assay [3] (1 mg/kg s.c., Day 10), 4.14. Further, the food intake in assay [3] (3 mg/kg s.c., Day 1) stood at 5.13; in assay [3] (3 mg/kg s.c., Day 2), 4.86; in assay [3] (3 mg/kg s.c., Day 3), 4.29; in assay [3] (3 mg/kg s.c., Day 4), 4.29; in assay [3] (3 mg/kg s.c., Day 5), 4.00; in assay [3] (3 mg/kg s.c., Day 8) it was 3.86. Also, the food intake in assay [3] (3 mg/kg s.c., Day 9) was determined as 3.57; in assay [3] (3 mg/kg s.c., Day 10), 3.86.

B3: Q105C: single cysteine mutant of mature human NT-4/5 at position 105 (protein)
chain: GVSETAPASRRGELAVCDAVSGWVTDRRTAVDLRGREVEVLGEVPAAGGSPLRQYFFETRCKADNAEEGGPGAGGGGCRGVDRRHWVSECKAKQSYVRALTADACGRVGWRWIRIDTACVCTLLSRTGRA
As to B3, in the assay with human TrkB, the “functional binding with TrkB” value is recorded as “found possible”.

B4: E67C: single cysteine mutant of mature human NT-4/5, glutamic acid 67 to cysteine (protein)
chain: GVSETAPASRRGELAVCDAVSGWVTDRRTAVDLRGREVEVLGEVPAAGGSPLRQYFFETRCKADNACEGGPGAGGGGCRGVDRRHWVSECKAKQSYVRALTADAQGRVGWRWIRIDTACVCTLLSRTGRA
Consider B4, for which, in the assay with human TrkB, the “functional binding with TrkB” value was “found possible”.

The values above are taken from patent publication US20090203610A1, “METHODS OF TREATING OBESITY OR DIABETES USING NT-4/5” (RINAT NEUROSCIENCE CORPORATION, priority 2004, published 2009).
